# Columns and labels:
# 人ACE2 (293T-hACE2细胞表面) = 人ACE2 (293T-hACE2细胞表面) (human, UniProt Q9BYF1 18-805); assay: cell-based or functional assay
# [1] = biological target: hACE2-ecto重组蛋白 (人ACE2胞外区, C端6×His标签) (human, UniProt Q9BYF1 18-740)
# Chain of hACE2-ecto重组蛋白 (人ACE2胞外区, C端6×His标签) (Q9BYF1 other isoform, or with tags, fused parts or gaps): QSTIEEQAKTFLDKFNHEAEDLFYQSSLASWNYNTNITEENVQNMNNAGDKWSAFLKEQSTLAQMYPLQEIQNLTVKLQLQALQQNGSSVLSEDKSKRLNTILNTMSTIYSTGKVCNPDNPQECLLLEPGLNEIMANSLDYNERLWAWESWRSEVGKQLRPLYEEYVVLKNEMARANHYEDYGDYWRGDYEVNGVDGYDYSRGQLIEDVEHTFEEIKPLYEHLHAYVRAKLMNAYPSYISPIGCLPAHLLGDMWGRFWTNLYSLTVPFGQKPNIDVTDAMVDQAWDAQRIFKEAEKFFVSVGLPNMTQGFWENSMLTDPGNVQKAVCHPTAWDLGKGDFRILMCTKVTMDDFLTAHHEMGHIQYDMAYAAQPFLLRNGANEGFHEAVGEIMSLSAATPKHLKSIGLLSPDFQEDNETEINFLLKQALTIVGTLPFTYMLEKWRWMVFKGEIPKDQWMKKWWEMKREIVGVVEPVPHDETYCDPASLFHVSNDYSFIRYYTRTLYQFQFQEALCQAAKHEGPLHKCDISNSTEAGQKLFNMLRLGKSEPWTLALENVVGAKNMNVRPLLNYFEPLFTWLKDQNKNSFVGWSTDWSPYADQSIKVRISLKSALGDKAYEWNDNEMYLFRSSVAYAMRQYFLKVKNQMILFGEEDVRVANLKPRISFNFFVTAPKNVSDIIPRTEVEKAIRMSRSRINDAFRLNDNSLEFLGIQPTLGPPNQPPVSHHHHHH
# Chain of 人ACE2 (293T-hACE2细胞表面) (Q9BYF1 18-805): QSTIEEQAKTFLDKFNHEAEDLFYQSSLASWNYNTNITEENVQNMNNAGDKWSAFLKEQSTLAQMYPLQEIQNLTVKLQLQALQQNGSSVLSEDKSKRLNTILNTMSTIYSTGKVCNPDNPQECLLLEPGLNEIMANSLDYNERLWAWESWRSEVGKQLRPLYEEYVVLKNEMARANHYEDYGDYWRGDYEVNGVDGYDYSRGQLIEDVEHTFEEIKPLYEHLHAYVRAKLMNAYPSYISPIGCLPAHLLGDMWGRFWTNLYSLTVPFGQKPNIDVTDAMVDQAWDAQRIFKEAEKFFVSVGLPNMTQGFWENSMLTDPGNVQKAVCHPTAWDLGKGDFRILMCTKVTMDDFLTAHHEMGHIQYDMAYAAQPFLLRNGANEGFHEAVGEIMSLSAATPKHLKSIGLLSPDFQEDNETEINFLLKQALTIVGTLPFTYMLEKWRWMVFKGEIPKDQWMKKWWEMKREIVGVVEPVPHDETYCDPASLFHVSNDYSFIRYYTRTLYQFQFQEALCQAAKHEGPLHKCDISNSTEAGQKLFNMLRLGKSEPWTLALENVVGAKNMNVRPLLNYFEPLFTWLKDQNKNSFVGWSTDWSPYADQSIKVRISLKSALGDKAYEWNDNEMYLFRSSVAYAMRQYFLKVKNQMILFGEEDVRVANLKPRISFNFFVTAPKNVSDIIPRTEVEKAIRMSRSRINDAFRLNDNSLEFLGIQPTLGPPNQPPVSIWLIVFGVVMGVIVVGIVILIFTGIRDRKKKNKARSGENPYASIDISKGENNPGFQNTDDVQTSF
binder,measurement,setting,value
"抗人ACE2蛋白单克隆抗体2D6 (antibody, V domains shown) VH: EVKLVESGGGLVQPGGSLRLSCATSGFTFTDYYMSWVRQPPGKALEWLGFIRNRPNDYTTEYSASVKGRFTISRDNSQSILYLQMNTLRAEDSATYYCARDRGLRQAMDYWGQGTSVTVSS VL: QIVLTQSPAIMSASPGEKVTMTCTASSSVTYMHWYQQKSGTSPKRWIYDTSKLASGVPGRFSGSGSGTSYSLTISSMEAEDAATYFCQQWSFNPLTFGSGTKLEIK","假病毒阻断试验 IC50, SARS-CoV-2 Delta(B.1.617.2)假病毒感染293T-hACE2细胞 (荧光素酶活性)",人ACE2 (293T-hACE2细胞表面),0.346 µg/mL
same,"假病毒阻断试验 IC50, SARS-CoV-2 Omicron(B.1.1.529)假病毒感染293T-hACE2细胞 (荧光素酶活性)",人ACE2 (293T-hACE2细胞表面),0.139 µg/mL
same,"假病毒阻断试验 IC50, SARS-CoV-2野生型(Wuhan-1)假病毒感染293T-hACE2细胞 (荧光素酶活性)",人ACE2 (293T-hACE2细胞表面),0.164 µg/mL
same,EC50,[1],0.00841 µg/mL

# Source: patent CN114805579A (UNIV ZHENGZHOU, dated 2022)
